Experimental data published in US20210188971A1.

Columns and labels:
[1] = biological target: L1-10_NLuc antigen (Strep-MBP-L1-10-Nluc) (human); assay: competition ELISA, soluble M22 titrated with L1-10_NLuc at 0.1 µg/mL; competitor M22 coated on the plate
[2] = biological target: L1-10_NLuc antigen (Strep-MBP-L1-10-Nluc) (human); assay: luminescence ELISA, M22 directly coated, L1-10_NLuc titrated
[3] = biological target: L1-10_NLuc antigen (Strep-MBP-L1-10-Nluc) (human); assay: competition ELISA, soluble M22 titrated with L1-10_NLuc at 0.2 µg/mL; competitor M22 coated on the plate
[4] = biological target: L1-10_NLuc antigen (Strep-MBP-L1-10-Nluc) (human); assay: competition ELISA, soluble M22 titrated with L1-10_NLuc at 1 µg/mL; competitor M22 coated on the plate

IC50 [1]: 0.008 µg/mL
RLU [2]: < 7e+06 RLU
IC50 [3]: 0.012 µg/mL
IC50 [4]: 0.03 µg/mL
Substance: M22, unlabeled (thyroid-stimulating TSHR-specific monoclonal antibody)
